Test [1] concerns the target T1, AGR2 deletion mutant lacking the epitope … (UniProt O95994 21-175).
T1 construct: Made from the pcDNA3-AGR2-His eukaryotic expression plasmid by deletion mutagenesis; also called the mutated AGR2 protein; not shown: His tag of the pcDNA3-AGR2-His plasmid
T1 sequence (looked up): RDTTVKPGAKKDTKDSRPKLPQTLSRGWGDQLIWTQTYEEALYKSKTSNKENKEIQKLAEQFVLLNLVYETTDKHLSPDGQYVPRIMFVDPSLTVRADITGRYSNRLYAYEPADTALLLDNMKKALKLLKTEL
The experiment in a line: western blot. The procedure: The amino sequence of the monoclonal antibody corresponding to the epitopes of the antigen AGR2 was determined (see FIG. 23). The procedure was as followed: RNA was extracted from MCF cells. mRNA of AGR2 was obtained by PCR and reverse transcribed to obtain cDNA. The pcDNA3-AGR2-His eukaryotic expression plasmid was constructed and AGR2 was subjected to mutation by deletion. The upstream primer for the mutation was 5′-[…]-3′, and the downstream primer was 5′-[…]-3′. Such a mutation led to the deletion of the epitope […]. […] Then AGR2 was subjected to point mutation. The upstream primer for the mutation was 5′-[…]-3′, and the downstream primer was 5′-[…]-3′, wherein the “C” in the PDI active site “CXXS” was mutate to “S”. […] It was determined that the monoclonal antibody specifically bound to the epitope “[…]”, and may inhibit the PDI activity.

The target in test [2] is T2, human anterior gradient protein 2 (AGR2) (human, UniProt O95994 21-175).
T2 chain: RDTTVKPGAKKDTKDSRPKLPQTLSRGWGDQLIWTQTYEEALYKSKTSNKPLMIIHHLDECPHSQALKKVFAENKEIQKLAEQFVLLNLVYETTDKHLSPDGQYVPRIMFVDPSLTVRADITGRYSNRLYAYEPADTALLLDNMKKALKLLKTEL
The experiment in a line: competitive ELISA.

In test [3] the target is T3, human anterior gradient protein 2 (AGR2) (human, UniProt O95994 21-175, limits assumed).
T3 construct: also called hAG-2; antigen AGR2
T3 sequence (looked up): T2 chain
The experiment in a line: competitive ELISA, AGR2 coated, antibody pre-incubated with soluble antigen. The procedure:
The generated humanized antibody 18A4Hu1 was subjected to an affinity analysis and compared with the murine 18A4 antibody. Specifically, 3 ng/μl antigen AGR2 was used for coating the 96 well ELISA plates at 100 μl per well and blocked with blocking solution. Antibodies at 0.1 ng/μl were mixed 1:1 with antigens of different concentrations and incubated at 37° C. overnight, wherein the antigen concentration was serially diluted from 1000 nM. 100 μl incubated mixture was separately added into different ELISA plates and incubated at 37° C. for 1 hour. After washing the ELISA plates, the HRP-labeled secondary antibodies against human or mouse were added and incubated at 37° C. for 1 hour. Color development solutions A and B were added, each at 80 μl, and color was allowed to develop at 37° C. for 30 min. The reaction was stopped by adding 50 μl stopping solution and absorbance was determined at OD 450. Affinity plate was depicted and the affinities of the antibodies were calculated.
A general note: ELISA stands for enzyme-linked immunosorbent assay.

B1: murine anti-human AGR2 protein monoclonal antibody 18A4 (antibody, V domains shown)
VH: EVQLQQFGAELVKPGASVKISCKASAYTFTDYNMDWVKQSHGKSLEWIGDINPNYDTTSYNQKFKGKATLTVDKSSSTAYMELRSLTSEDTAVYYCARSMMGYGSPMDYWGQGTSVTVSS
VL: DIVLTQSPASLTVSLGQRATISCRASKSVSTSGYSYMHWYQRKPGQPPKLLIYLASNLESGVPARFSGSGSGTDFTLNIHPVEGEDAATYYCQHIRELPRTFGGGTKLEIK
notes: also called murine 18A4; the monoclonal antibody
As to B1, the binding result in test [1] is given as “no binding”. This molecule also registered a Kd in test [2] of 1.7 nM.

B2: humanized antibody 18A4Hu1 (antibody, V domains shown)
VH: QVQLVQSGAEVKKPGASVKVSCKASGYTFTDYNMDWVRQAPGQGLEWIGDINPNYDTTSYNQKFKGKATLTVDKSTSTAYMELSSLRSEDTAVYYCARSMMGYGSPMDYWGQGTLVTVSS
VL: EIVLTQSPATLSLSPGERATLSCRASKSVSTSGYSYMHWYQQKPGQAPRLLIYLASNLESGIPARFSGSGSGTDFTLTISRLEPEDFAVYYCQHIRELPRTFGGGTKLEIK
Consider B2, for which, in test [3], the binding result is given as “binds”. In addition, the Kd in test [2] came out at 3.02 nM.

The Kd is the free concentration of one partner at which half of the binding sites on the other are occupied at equilibrium, for simple one-to-one binding.

For the origin of these results see patent publication US20170240651A1 (Sanofi, published 2017).
